Experimental data taken from publication PMC12549891.

Biological target: human olfactory CNGA2/A4/B1b heterotetrameric channel (human) (UniProt Q16280)
Sequence (Q16280 whole entry, chain 1 of 3): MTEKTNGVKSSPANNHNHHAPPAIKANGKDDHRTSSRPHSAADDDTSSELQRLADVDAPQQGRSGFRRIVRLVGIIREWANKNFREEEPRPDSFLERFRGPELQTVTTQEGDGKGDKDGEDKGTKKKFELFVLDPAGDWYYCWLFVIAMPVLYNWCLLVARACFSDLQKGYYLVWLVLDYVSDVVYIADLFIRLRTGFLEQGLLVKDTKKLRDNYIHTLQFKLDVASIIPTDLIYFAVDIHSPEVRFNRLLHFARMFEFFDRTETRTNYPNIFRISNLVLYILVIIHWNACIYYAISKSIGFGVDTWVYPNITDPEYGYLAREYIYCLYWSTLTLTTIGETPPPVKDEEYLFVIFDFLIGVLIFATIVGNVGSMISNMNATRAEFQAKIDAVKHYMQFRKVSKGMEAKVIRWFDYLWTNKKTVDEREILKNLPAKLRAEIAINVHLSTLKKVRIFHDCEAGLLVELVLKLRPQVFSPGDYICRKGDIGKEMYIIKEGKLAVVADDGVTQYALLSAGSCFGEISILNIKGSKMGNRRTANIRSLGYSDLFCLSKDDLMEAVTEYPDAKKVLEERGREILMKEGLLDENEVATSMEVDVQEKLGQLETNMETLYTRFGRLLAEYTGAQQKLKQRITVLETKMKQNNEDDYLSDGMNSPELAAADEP
Sequence (Q8IV77 whole entry, chain 2 of 3, further chain): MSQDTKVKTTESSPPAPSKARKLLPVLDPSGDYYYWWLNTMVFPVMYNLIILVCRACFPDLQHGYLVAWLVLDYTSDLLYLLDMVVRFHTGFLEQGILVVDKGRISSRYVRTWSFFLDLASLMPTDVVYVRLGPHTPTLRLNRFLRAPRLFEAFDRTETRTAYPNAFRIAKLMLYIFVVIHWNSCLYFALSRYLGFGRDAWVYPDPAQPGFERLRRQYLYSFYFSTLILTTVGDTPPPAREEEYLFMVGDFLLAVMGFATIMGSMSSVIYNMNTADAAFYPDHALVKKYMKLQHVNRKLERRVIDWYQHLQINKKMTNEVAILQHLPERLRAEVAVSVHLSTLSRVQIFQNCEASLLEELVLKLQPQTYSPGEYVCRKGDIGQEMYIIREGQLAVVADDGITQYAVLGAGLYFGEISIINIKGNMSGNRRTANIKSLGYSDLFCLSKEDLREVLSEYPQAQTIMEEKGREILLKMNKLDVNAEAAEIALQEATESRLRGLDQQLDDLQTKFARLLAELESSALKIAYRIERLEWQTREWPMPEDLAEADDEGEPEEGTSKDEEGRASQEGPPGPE
Sequence (Q14028 456-1251, chain 3 of 3, further chain): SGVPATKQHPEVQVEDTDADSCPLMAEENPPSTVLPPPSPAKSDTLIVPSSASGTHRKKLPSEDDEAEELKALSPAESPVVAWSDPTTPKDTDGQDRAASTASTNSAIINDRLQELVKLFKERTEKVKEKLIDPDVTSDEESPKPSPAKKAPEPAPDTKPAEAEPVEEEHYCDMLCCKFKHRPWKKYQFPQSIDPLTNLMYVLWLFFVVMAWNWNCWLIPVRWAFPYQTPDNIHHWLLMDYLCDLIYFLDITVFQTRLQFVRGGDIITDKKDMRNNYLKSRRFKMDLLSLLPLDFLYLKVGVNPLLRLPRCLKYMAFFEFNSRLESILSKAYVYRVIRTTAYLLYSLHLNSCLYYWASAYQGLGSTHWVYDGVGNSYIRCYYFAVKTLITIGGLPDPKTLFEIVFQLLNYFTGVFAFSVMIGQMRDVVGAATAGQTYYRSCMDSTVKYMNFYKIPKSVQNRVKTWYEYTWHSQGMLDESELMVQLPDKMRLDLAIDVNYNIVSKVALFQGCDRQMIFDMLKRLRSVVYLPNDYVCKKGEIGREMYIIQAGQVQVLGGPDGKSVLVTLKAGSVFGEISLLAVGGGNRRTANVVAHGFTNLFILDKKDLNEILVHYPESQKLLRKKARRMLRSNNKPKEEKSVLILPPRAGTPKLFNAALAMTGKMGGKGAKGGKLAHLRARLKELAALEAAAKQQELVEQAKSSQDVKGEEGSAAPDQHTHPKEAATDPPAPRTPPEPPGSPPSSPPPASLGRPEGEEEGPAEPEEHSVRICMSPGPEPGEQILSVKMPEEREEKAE

time of washout with EGTA-containing bath solution needed to remove the bound (endogenous) CaM from the channel in excised patches: 10 min
Substance: human calmodulin (from UniProt P0DP23 1-149) (natural protein)
